Laboratory results as given in article PMC13451967.
Blank lines part the entries; values can stand above or below the substance they belong to.

Columns and labels:
[1] = biological target: His-SpNDK H121A mutant (catalytically inactive) (Streptococcus pneumoniae); test: mass photometry; Refeyn OneMP; 50 mM HEPES pH 7.4, 150 mM NaCl with ATP or GTP and 5 mM MgCl2, 5 min at 22°C before the analysis
[2] = biological target: Streptococcus pneumoniae nucleoside diphosphate kinase with an N-terminal hexa-histidine tag (His-SpNDK), wild type (Streptococcus pneumoniae); test: mass photometry; Refeyn OneMP; His-SpNDK diluted to 200 nM, 5 µL added to 15 µL of buffer; 50 mM HEPES pH 7.4, 100 mM NaCl; no nucleotide (ADP or GDP had no significant effect on the wild type)
[3] = biological target: Streptococcus pneumoniae nucleoside diphosphate kinase with an N-terminal hexa-histidine tag (His-SpNDK), wild type (Streptococcus pneumoniae); test: SEC; Superdex 200 Increase 10/300 GL, 50 mM HEPES pH 7.4, 100 mM NaCl; concentrated sample; molecular weights from a standard curve
[4] = biological target: His-SpNDK R28A mutant (Streptococcus pneumoniae); test: as above

Substance: His-SpNDK H121A mutant (catalytically inactive) (enzyme)
stoichiometry N [1]: < 6

stoichiometry N [2]: 18
stoichiometry N [3]: 18
Substance: Streptococcus pneumoniae nucleoside diphosphate kinase with an N-terminal hexa-histidine tag (His-SpNDK), wild type (enzyme)

Substance: His-SpNDK R28A mutant (enzyme)
stoichiometry N [4]: 2
